The experiment addresses endostatin incubated overnight with DXS500k (human) (UniProt P39060). Nature of the experiment: ELISA, protein/DXS500k mixture immobilized on Greiner Microlon plate, tPA in 10 mM εACA, detection with antibody 374b. (In general: In an ELISA, binding on a coated surface is turned into a signal by an enzyme label.)

From patent US20080249606A1 come the findings set out here.

endostatin incubated overnight with DXS500k (human), sequence (P39060 1572-1754): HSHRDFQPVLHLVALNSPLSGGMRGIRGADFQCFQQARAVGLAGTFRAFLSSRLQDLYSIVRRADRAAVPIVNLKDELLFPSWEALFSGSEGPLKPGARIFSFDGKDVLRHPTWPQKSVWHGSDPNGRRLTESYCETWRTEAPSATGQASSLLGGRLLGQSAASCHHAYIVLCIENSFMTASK
tissue-type plasminogen activator (tPA, Actilyse, Boehringer-Ingelheim), sequence (P00750 36-562 limits assumed): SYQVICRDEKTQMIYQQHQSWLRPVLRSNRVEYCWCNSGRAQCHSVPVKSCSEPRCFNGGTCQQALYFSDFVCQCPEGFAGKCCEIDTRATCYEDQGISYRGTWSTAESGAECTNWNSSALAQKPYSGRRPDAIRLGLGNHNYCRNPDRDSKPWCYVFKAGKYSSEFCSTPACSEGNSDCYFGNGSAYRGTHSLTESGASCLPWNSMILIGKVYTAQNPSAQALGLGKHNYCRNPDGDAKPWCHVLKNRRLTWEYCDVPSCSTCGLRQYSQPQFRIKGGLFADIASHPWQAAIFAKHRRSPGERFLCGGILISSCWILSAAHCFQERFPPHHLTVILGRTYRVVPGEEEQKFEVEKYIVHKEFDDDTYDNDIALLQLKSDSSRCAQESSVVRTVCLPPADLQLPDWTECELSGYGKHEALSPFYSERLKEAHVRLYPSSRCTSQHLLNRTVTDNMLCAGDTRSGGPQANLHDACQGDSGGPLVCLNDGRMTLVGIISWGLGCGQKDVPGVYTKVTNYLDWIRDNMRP

For the substance “tissue-type plasminogen activator (tPA, Actilyse, Boehringer-Ingelheim) (from UniProt P00750 36-562) (enzyme)”, the factor of increase of tPA binding against the protein incubated with buffer only amounted to 10.5 fold.
